Laboratory results published in patent US20250250360A1 (CCBIOTECH, published 2025).

Target: T1, sulfatase 1 (SULF1) antigen
T1 construct: also called antigen peptide
T1 peptide: CNPRPKNLDVGNKDGGSYD
Test: indirect ELISA, antigen coated on plate, HRP-labeled secondary antibody, A450 nm
Text: This embodiment is directed to two antibodies (anti-GALNS specific antibody and anti-SULF1 specific antibody) and analyzes their specificity to the target proteins under different concentrations of antigen. The indirect ELISA detection method was used to conduct antibody specificity analysis, compare the specificity performance of antibodies to different concentrations of antigens, and BSA was used as the background control group for evaluation. The antigen was coated on a 96-well ELISA plate, the test antibody and the HRP-labeled secondary antibody were added for reaction, and the absorbance value was measured using a 450 nm wavelength microplate reader.

B1: anti-sulfatase 1 (SULF1) specific antibody (antibody, V domains shown)
VH: EVKLQESGAELVKPGASVKMSCKASGYTFTSYWMHWVKQRPGQGLEWIGTIDPSDSYTSYNQKFKGKATLTVDTSSSTAYMQLSSLTSEDSAVYYCTRGEYGNAMDYWGQGTSVTVSS
VL: DIVLTQTPSYLAASPGETITINCRASKSISKYLAWYQEKPGKTNKLLIYSGSTLQSGIPSRFSGSGSGTDFTLTISSLEPEDFAMYYCQQHNEYPYTFGGGTKLEIKR
notes: also called anti-SULF1 specific antibody; anti-Sulf1 specific antibody
binding result: binds
